T1: human MSR1 extracellular domain expressed with a N-terminal nonahistidine tag (His9-hMSR1); R&D Systems, Cat … (human, UniProt P21757 77-451)
T1 construct: extracellular domain; Bought reagent; also called His-hMSR1; 9xHis-hMSR1
T1 sequence: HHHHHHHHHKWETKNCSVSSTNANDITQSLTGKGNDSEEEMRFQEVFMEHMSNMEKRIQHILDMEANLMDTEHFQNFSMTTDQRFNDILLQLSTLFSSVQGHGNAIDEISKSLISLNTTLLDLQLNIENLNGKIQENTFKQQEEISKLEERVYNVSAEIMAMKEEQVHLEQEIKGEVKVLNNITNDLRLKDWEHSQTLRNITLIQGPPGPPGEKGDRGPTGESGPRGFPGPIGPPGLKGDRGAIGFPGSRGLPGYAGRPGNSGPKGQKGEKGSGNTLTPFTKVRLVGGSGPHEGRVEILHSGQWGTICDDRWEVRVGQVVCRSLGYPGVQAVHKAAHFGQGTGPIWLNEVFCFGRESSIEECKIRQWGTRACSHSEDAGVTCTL

T2: mouse MSR1 extracellular domain expressed with a N-terminal nonahistidine tag (His9-mMSR1); R&D Systems, Cat … (mouse, UniProt P30204 79-458)
T2 construct: extracellular domain; not shown: N-terminal nonahistidine tag
T2 sequence (looked up): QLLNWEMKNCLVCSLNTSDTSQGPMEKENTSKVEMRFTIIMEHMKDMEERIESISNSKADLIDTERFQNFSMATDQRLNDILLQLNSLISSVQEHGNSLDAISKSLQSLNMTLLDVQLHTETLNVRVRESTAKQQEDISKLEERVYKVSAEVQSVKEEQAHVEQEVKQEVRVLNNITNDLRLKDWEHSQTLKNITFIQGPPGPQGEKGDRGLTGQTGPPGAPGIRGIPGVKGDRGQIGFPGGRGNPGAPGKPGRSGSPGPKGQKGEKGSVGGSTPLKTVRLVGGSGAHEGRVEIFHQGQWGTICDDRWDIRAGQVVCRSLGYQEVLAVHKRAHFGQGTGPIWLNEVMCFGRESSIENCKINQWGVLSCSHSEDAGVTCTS

T3: monkey MSR1 extracellular domain expressed with a N-terminal hexahistidine-myc-myc tag (HMM-mfMSR1) (monkey (Macaca fascicularis))
T3 chain: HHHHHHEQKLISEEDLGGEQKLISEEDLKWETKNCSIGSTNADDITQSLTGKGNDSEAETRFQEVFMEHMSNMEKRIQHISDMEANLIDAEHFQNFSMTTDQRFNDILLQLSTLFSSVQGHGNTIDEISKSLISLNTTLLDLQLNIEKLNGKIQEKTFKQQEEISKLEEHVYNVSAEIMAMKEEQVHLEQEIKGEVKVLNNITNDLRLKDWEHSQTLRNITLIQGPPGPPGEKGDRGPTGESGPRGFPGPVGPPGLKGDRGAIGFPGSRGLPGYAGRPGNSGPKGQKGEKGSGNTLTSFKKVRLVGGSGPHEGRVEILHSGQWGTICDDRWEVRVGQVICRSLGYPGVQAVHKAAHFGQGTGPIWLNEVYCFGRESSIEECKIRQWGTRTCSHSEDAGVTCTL

T4: human MSR1 extracellular domain expressed with a N-terminal nonahistidine tag (His9-hMSR1); R&D Systems, Cat … (human, UniProt P21757 77-451)
T4 construct: extracellular domain; also called His-hMSR1; 9xHis-hMSR1; not shown: N-terminal nonahistidine tag
T4 sequence (looked up): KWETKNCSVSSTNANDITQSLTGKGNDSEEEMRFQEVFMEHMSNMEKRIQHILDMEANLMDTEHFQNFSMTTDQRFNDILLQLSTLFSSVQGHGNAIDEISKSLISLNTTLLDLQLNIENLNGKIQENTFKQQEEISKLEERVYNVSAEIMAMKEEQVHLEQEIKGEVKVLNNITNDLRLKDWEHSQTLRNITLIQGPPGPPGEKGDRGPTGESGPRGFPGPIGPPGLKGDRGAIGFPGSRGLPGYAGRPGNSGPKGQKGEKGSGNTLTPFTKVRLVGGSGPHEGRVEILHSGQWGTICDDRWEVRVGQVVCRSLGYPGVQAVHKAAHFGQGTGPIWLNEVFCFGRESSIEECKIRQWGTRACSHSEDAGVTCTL


Experiments:
[1] = biological target: T1, human MSR1 extracellular domain …; experiment: SPR Biacore T200, 25 C, antibody captured by anti-human Fc, His9-hMSR1 injected;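 note: running buffer HBS-ET pH 7.4, rates from sensorgrams fitted to a 1:1 model including mass transport limitation, KD and half-life derived from the kinetic constants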
Procedure: All binding studies were performed in 10 mM HEPES, 300 mM NaCl, 3 mM EDTA, and 0.05% v/v Surfactant Tween-20, pH 7.4 (HBS-ET) running buffer at 25° C.
The association rate (kₐ) and dissociation rate (kd) were determined by fitting the real-time binding sensorgrams to a 1:1 binding model with mass transport limitation using Scrubber 2.0c curve-fitting software. Binding dissociation equilibrium constant (KD) and dissociative half-life (t½) were calculated from the kinetic rates as:

[2] = biological target: T1, human MSR1 extracellular domain …; experiment: SPR Biacore T200, 25 C, antibody captured by anti-human Fc, His9-hMSR1 injected; no dissociation seen, kd fixed at 1.00E-05;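 for kon: running buffer HBS-ET pH 7.4, rates from sensorgrams fitted to a 1:1 model including mass transport limitation, KD and half-life derived from the kinetic constants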
[3] = biological target: T2, mouse MSR1 extracellular domain …; experiment: BLI Octet, 25 C, antibody captured
[4] = biological target: T3, monkey MSR1 extracellular domain …; experiment: SPR Biacore, 25 C, antibody captured;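 note: rates from 1:1 fit with mass transport limitation of real-time sensorgrams, HEPES-buffered saline with EDTA and Tween-20 at pH 7.4, KD and t½ derived from the kinetic rates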
[5] = biological target: T4, human MSR1 extracellular domain …; experiment: SPR Biacore, 25 C, antibody captured;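 note: rates from 1:1 fit with mass transport limitation of real-time sensorgrams, HEPES-buffered saline with EDTA and Tween-20 at pH 7.4, KD and t½ derived from the kinetic rates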
[6] = biological target: T3, monkey MSR1 extracellular domain …; experiment: SPR Biacore, 37 C, antibody captured
[7] = biological target: T4, human MSR1 extracellular domain …; experiment: SPR Biacore, 37 C, antibody captured

Binder	binding result [3]	Kd [4] [nM]	koff [4] [s⁻¹]	kon [4] [M⁻¹ s⁻¹]	t½ [4] [min]	Kd [5] [nM]	koff [5] [s⁻¹]	kon [5] [M⁻¹ s⁻¹]	t½ [5] [min]	Kd [6] [nM]	koff [6] [s⁻¹]	kon [6] [M⁻¹ s⁻¹]	t½ [6] [min]	Kd [7] [nM]	koff [7] [s⁻¹]	kon [7] [M⁻¹ s⁻¹]	t½ [7] [min]	also measured
H1H27766P-N297Q (antibody, human IgG1, V domains shown, human IgG1 Fc with N297Q (EU); also called H1H27766P2-N297Q) VH: EVQLVESGGGLVQPGGSLRLSCAASGFTFSSFAMSWVRQAPGKELEWVSSISGRGGSTYYADSVRGRFTISRDNSKITLYLQMNSLRAEDTAVYYCAKDIVFRYTSSAYWYFDLWGRGTLVTVSS VL: not shown	–	–	–	–	–	–	–	–	–	–	–	–	–	–	–	–	–	kon [1]: 172000 M⁻¹ s⁻¹; Kd [2]: ≤ 0.0583 nM; koff [2]: ≤ 1e-05 s⁻¹; t½ [2]: ≥ 1160 min
H1H21234N-N297Q-LP1 (antibody, human IgG1, V domains shown, LXR agonist linker-payload LP1 clicked to azido-PEG3-amine on Q295 and Q297 (EU) of the heavy chain constant region, antibody-drug conjugate; human IgG1 Fc with N297Q (EU); also called H1H21234N-LP1) VH: QVQLQESGPGLVKPSETLSLTCTVTGGSISRNYWSWIRQPPGKGLEWIGYIYYSGSIDYNPSLKSRVTISVDTSKNQFSLKLSSMTAADTAVYYCARDRWNWKYGMDVWGQGTTVIVSS VL: EIVLTQSPGTLSLSPGERATLSCRASQTVRNNYLAWYHQKPGQAPRLLIYGASSRATGIPDRFSGSGSGTDFTLTISRLEPEDFTVYYCHQYGNSPWTFGQGTKMEIKR	–	–	–	–	–	–	–	–	–	–	–	–	–	–	–	–	–	kon [1]: 490000 M⁻¹ s⁻¹; Kd [2]: ≤ 0.0204 nM; koff [2]: ≤ 1e-05 s⁻¹; t½ [2]: ≥ 1160 min
H2aM25685N (antibody, V domains shown, Human variable domains with mouse IgG2a Fc; tied by the numerical identifier) VH: QVQLVQSGAEVREPGASVKLSCKVSGYTLTELSIHWVRQAPGKGLEWMGGFDPEEGETVYAQKFRGRVTLTEDISPDTAYMELSSLTSEDTAVYYCATPRYCNNGICYDYWGQGTLITVSS VL: not shown	no binding (tested: 100 nM)	–	–	–	–	–	–	–	–	–	–	–	–	–	–	–	–	–
H1H27731P-N297Q (antibody, V domains shown, Human IgG1 Fc with N297Q point mutation) VH: QLQLQESGPGLVKPSETLSLTCTVSGGSISRISYYWGWIRQPPGKGLEWIGSIYDSGSTYYNPSLKSRVTISIDTSKNQFSLKLSSVTAADTAVYYCVRYSSSSAFAFDYWGQGTLVTVSS VL: DIQMTQSPSSVSASVGDRVTITCRASQGISSWLAWYQQKPGKAPKLLIYAASSLQSGVPSRFSGSGSGTDFTLTISSLQPEDFATYYCQQANSFPFTFGPGTKVDIKR	no binding (tested: 50 nM)	0.477	4.69e-05	98200	247	0.174	2.24e-05	129000	515	0.674	0.000187	278000	62	0.462	0.000132	286000	88	–
H1H27747P-N297Q (antibody, V domains shown, Human IgG1 Fc with N297Q point mutation) VH: QVQLVESGGAVVQPGRSLRLSCAASGFTFSYYGMHWVRQAPGKGLEWVAVISYDGSKKYYADSVKGRFTISRDNSKNTLYLQMNSLRAEDTAVYYCAKDLTVDFYYGMDVWGQGTTVTVSS VL: DIQMTQSPSSVSASVGDRVTITCRASQGISSWLAWYQQKPGKAPKLLIYATSSLQSGAPSRFSGSGSGTDFTLTISSLQPEDFATYFCQQANSFPYTFGQGTKLEIKR	no binding (tested: 50 nM)	3.78	0.000874	231000	13	–	–	–	–	3.47	0.00228	657000	5	5.37	0.00276	513000	4	–
H1H27751P-N297Q (antibody, V domains shown, Human IgG1 Fc with N297Q point mutation) VH: EVQLVESGGGLVQPGGSLRLSCAASGFTFSNYAMHWVRQAPGKGLEYVSAISSNGGSTYYADSVKGRITISRDNSKNTLYLQMGSLRAEDMAVYYCARGRPYYYYFGMDVWGQGTTVTVSS VL: not shown	no binding (tested: 50 nM)	1.01	0.000749	744000	15	0.172	0.000305	1.78e+06	38	1.55	0.0018	1.17e+06	6	–	–	–	–	–
H2aM25690N (antibody, V domains shown, Human variable domains with mouse IgG2a Fc; tied by the numerical identifier) VH: EVQLLESGGGLVQPGGSLRLSCAASGFTFSNYAMTWVRQAPGTGLEWVSAISGRGSNTYYTDSVKGRFTISRDNSKNMLYLQMNSLRAEDTASYYCAKDRFTTVGNWFDPWGQGTLVTVSS VL: DIQMTQSPSSLSASVGDRVTITCRASQSISSYLNWYQQKPGKAPKLLIYAASSLQNGVPSRFSGSGSGTDFTLTISSLQPEDFATYYCQQSYSSLPITFGQGTRLDIKR	no binding (tested: 100 nM)	–	–	–	–	–	–	–	–	–	–	–	–	–	–	–	–	–
H1H27729P-N297Q (antibody, V domains shown, Human IgG1 Fc with N297Q point mutation) VH: QVQLVESGGGLVKPGGSLRLSCAASGFIFSDYYMSWIRQAPGKGLEWVSYISSSGTTIYGDSVKGRFTMSRDNAKNSLYLQMNSLRAEDTAVYYCARNYALFDYWGQGTLVTVSS VL: DIQMTQSPSSLSASVGDRVTITCQASQDISKYLNWYQQKPGKAPKLLIYYTSNLETGVPSRFSGSGSGTDFTFTISSLQPEDIATYYCHQSDYLPFTFGPGTKVDIKR	no binding (tested: 50 nM)	7.9	0.00212	269000	5	5.45	0.00107	197000	11	8.58	0.00349	407000	3.3	8.53	0.00204	239000	6	–
H2aM21232N (antibody, V domains shown, Human variable domains with mouse IgG2a Fc) VH: QVQLQESGPGLVKPSETLSLTCTVSGGSISSYYWSWIRQPPGKGLEWIGYIYYSGSANYNPSLKSRVTISVDTSKNQFSLKLSSVTAADTAVYYCVRDRDLLLDHWGQGTLVTVSS VL: not shown	no binding (tested: 100 nM)	–	–	–	–	–	–	–	–	–	–	–	–	–	–	–	–	–
H1H27734P-N297Q (antibody, V domains shown, Human IgG1 Fc with N297Q point mutation) VH: EVQLVESRGGLVQPGGSLRLSCAASGFTFSSYAMSWVRQAPGKGLEWVSAISGSGGSTFYADSVKGRFTISRDNSKNTVYLQMNSLRAEDTAVYYCAKALVLRFLEWLGDYWGQGTLVTVSS VL: DIQMTQSPSTLSASVGDRVTITCRASQSISSWLAWFQQKPGKAPKLLIYKASSLESGVPSRFSGSGSGTEFTLTISSLQPDDFATYYCQQYKSYWTFGQGTKVEIKR	no binding (tested: 50 nM)	6.88	0.00291	423000	4	2.64	0.00111	420000	10	3.37	0.0032	949000	4	1.74	0.0019	1.09e+06	6	–

Reference: patent publication US20190367631A1 (Regeneron, published 2019)
